Source: patent US20200024330A1

Columns and labels:
Assay in all cases: cell-based or functional assay
[1] = molecular target: HIV-1 92RW020 Env (pseudovirus) (HIV-1 92RW020)
[2] = molecular target: HIV-1 ADA Env (pseudovirus) (HIV-1 ADA)
[3] = molecular target: HIV-1 Env of isolate AC10 (HIV-1)
[4] = molecular target: HIV-1 Env of isolate CAAN (HIV-1)
[5] = molecular target: HIV-1 Env of isolate CAP45 (HIV-1)
[6] = molecular target: HIV-1 Env of isolate DU156 (HIV-1)
[7] = molecular target: HIV-1 Env of isolate DU422 (HIV-1)
[8] = molecular target: HIV-1 Env of isolate Du172 (HIV-1)
[9] = molecular target: HIV-1 Env of isolate PVO.4 (HIV-1)
[10] = molecular target: HIV-1 Env of isolate REJ04541 (HIV-1)
[11] = molecular target: HIV-1 Env of isolate THRO.18 (HIV-1)
[12] = molecular target: HIV-1 Env of isolate TR0.11 (HIV-1)
[13] = molecular target: HIV-1 Env of isolate ZM214 (HIV-1)
[14] = molecular target: HIV-1 Env of isolate ZM233 (HIV-1)
[15] = molecular target: HIV-1 Env of isolate ZM249 (HIV-1)
[16] = molecular target: HIV-1 JR-CSF Env I309A (pseudovirus) (HIV-1 JR-CSF) (UniProt P20871)
[17] = molecular target: HIV-1 JR-CSF Env Y318A (pseudovirus) (HIV-1 JR-CSF) (UniProt P20871)
[18] = molecular target: HIV-1 JR-CSF Env, wild type (pseudovirus) (HIV-1 JR-CSF) (UniProt P20871)
[19] = molecular target: HIV-1 JR-FL Env E168K (pseudovirus) (HIV-1 JR-FL)
[20] = molecular target: MuLV envelope protein (control pseudovirus) (MuLV)
[21] = molecular target: HIV-1 92BR020 envelope glycoprotein (Env), clade B (HIV-1)
[22] = molecular target: HIV-1 92RW020 envelope glycoprotein (Env), clade A (HIV-1)
[23] = molecular target: HIV-1 92TH021 envelope glycoprotein (Env), clade AE (HIV-1)
[24] = molecular target: HIV-1 92UG005 envelope glycoprotein (Env), clade D (HIV-1)
[25] = molecular target: HIV-1 92UG024 envelope glycoprotein (Env), clade D (HIV-1)
[26] = molecular target: HIV-1 93IN905 envelope glycoprotein (Env), clade C (HIV-1)
[27] = molecular target: HIV-1 93UG077 envelope glycoprotein (Env), clade A (HIV-1)
[28] = molecular target: HIV-1 94UG103 envelope glycoprotein (Env), clade A (HIV-1)
[29] = molecular target: HIV-1 APV13 envelope glycoprotein (Env), clade B (HIV-1)
[30] = molecular target: HIV-1 APV17 envelope glycoprotein (Env), clade B (HIV-1)
[31] = molecular target: HIV-1 APV6 envelope glycoprotein (Env), clade B (HIV-1)
[32] = molecular target: HIV-1 CMU02 envelope glycoprotein (Env), clade AE (HIV-1)
[33] = molecular target: HIV-1 JRCSF envelope glycoprotein (Env), clade B (HIV-1) (UniProt P20871)
[34] = molecular target: HIV-1 JRFL envelope glycoprotein (Env), clade B (HIV-1)
[35] = molecular target: HIV-1 MGRM-A-010 envelope glycoprotein (Env), clade A (HIV-1)
[36] = molecular target: HIV-1 MGRM-AG-005 envelope glycoprotein (Env), clade AG (HIV-1)
[37] = molecular target: HIV-1 MGRM-C-026 envelope glycoprotein (Env), clade C (HIV-1)
[38] = molecular target: HIV-1 MGRM-C-027 envelope glycoprotein (Env), clade C (HIV-1)
[39] = molecular target: HIV-1 MGRM-C-028 envelope glycoprotein (Env), clade C (HIV-1)
[40] = molecular target: HIV-1 MGRM-D-001 envelope glycoprotein (Env), clade D (HIV-1)
[41] = molecular target: HIV-1 MGRM-D-018 envelope glycoprotein (Env), clade D (HIV-1)
[42] = molecular target: HIV-1 NL43 envelope glycoprotein (Env), clade B (HIV-1)
[43] = molecular target: aMLV envelope protein (negative control virus)

B1: 1489_I13 (PG16) (TCN-120) (antibody, V domains shown)
VH: QEQLLESGGGVVQPGGSLRLSCLASGFTFHKYGMHWVRQAPGKGLEWVALISDDGMRKYHSNSMWGRVTISRDNSKNTLYLQFSSLKVEDTAMFFCAREAGGPIWHDDVKYYDFNDGYYNYHYMDVWGKGTTVTVSS
VL: QSALTQPASVSGSPGQTITISCNGTSSDVGGFDSVSWYQQSPGKAPKVMVFDVSHRPSGISNRFSGSKSGNTASLTISGLHIEDEGDYFCSSLTDRSHRIFGGGTKVTVLG
Binder B1 has an IC50 (ug/ml), neutralization [1] of 0.03 µg/mL, an IC50 (ug/ml), neutralization [2] of 0.008 µg/mL and an IC50, pseudovirus neutralization (TZM-bl) [3] of under 0.01 µg/mL. The IC50, pseudovirus neutralization (TZM-bl) [4] was 24.9 µg/mL, the IC50, pseudovirus neutralization (TZM-bl) [5] was under 0.01 µg/mL and the IC50, pseudovirus neutralization (TZM-bl) [6] was under 0.01 µg/mL. The IC50, pseudovirus neutralization (TZM-bl) [7] was 1.87 µg/mL, the IC50, pseudovirus neutralization (TZM-bl) [8] was under 0.01 µg/mL and the IC50, pseudovirus neutralization (TZM-bl) [9] was 20.6 µg/mL. It also gave an IC50, pseudovirus neutralization (TZM-bl) [10] of 0.34 µg/mL, an IC50, pseudovirus neutralization (TZM-bl) [11] of 7.41 µg/mL and an IC50, pseudovirus neutralization (TZM-bl) [12] of 10.9 µg/mL. It also gave an IC50, pseudovirus neutralization (TZM-bl) [13] of over 25 µg/mL, an IC50, pseudovirus neutralization (TZM-bl) [14] of under 0.01 µg/mL and an IC50, pseudovirus neutralization (TZM-bl) [15] of under 0.01 µg/mL. The IC50 (ug/ml), neutralization [16] was over 1 µg/mL, the IC50 (ug/ml), neutralization [17] was over 1 µg/mL and the IC50 (ug/ml), neutralization [18] was 0.002 µg/mL. The IC50 (ug/ml), neutralization [19] was 0.005 µg/mL and the IC50, pseudovirus neutralization (TZM-bl), control virus [20] was over 25 µg/mL.

B2: PGT-135 monoclonal antibody (clones 5343_B08 and 5344_E16) (antibody, V domains shown)
VH: QLQMQESGPGLVKPSETLSLSCTVSGDSIRGGEWGDKDYHWGWVRHSAGKGLEWIGSIHWRGTTHYKESLRRRVSMSIDTSRNWFSLRLASVTAADTAVYFCARHRHHDVFMLVPIAGWFDVWGPGVQVTVSS
VL: EIVMTQSPDTLSVSPGETVTLSCRASQNINKNLAWYQYKPGQSPRLVIFETYSKIAAFPARFVASGSGTEFTLTINNMQSEDVAVYYCQQYEEWPRTFGQGTKVDIK
B2 gave an IC50 (neutralization of pseudovirus) [21] of 0.104 µg/mL, an IC80 (neutralization of pseudovirus) [21] of 0.253 µg/mL and an IC90 (neutralization of pseudovirus) [21] of 0.43 µg/mL. For the same binder, the IC95 (neutralization of pseudovirus) [21] was 0.72 µg/mL, the IC50 (neutralization of pseudovirus) [22] was 0.157 µg/mL and the IC80 (neutralization of pseudovirus) [22] was 3.46 µg/mL. It also gave an IC90 (neutralization of pseudovirus) [22] of over 10 µg/mL, an IC95 (neutralization of pseudovirus) [22] of over 10 µg/mL and an IC50 (neutralization of pseudovirus) [23] of over 10 µg/mL. It also gave an IC80 (neutralization of pseudovirus) [23] of over 10 µg/mL, an IC90 (neutralization of pseudovirus) [23] of over 10 µg/mL and an IC95 (neutralization of pseudovirus) [23] of over 10 µg/mL. The IC50 (neutralization of pseudovirus) [24] was over 10 µg/mL, the IC80 (neutralization of pseudovirus) [24] was over 10 µg/mL and the IC90 (neutralization of pseudovirus) [24] was over 10 µg/mL. The IC95 (neutralization of pseudovirus) [24] was over 10 µg/mL, the IC50 (neutralization of pseudovirus) [25] was 0.0139 µg/mL and the IC80 (neutralization of pseudovirus) [25] was 0.054 µg/mL. The IC90 (neutralization of pseudovirus) [25] was 0.122 µg/mL, the IC95 (neutralization of pseudovirus) [25] was 0.267 µg/mL and the IC50 (neutralization of pseudovirus) [26] was 0.0183 µg/mL. For the same binder, the IC80 (neutralization of pseudovirus) [26] was 0.0648 µg/mL, the IC90 (neutralization of pseudovirus) [26] was 0.136 µg/mL and the IC95 (neutralization of pseudovirus) [26] was 0.268 µg/mL. For the same binder, the IC50 (neutralization of pseudovirus) [27] was over 10 µg/mL, the IC80 (neutralization of pseudovirus) [27] was over 10 µg/mL and the IC90 (neutralization of pseudovirus) [27] was over 10 µg/mL. For the same binder, the IC95 (neutralization of pseudovirus) [27] was over 10 µg/mL, the IC50 (neutralization of pseudovirus) [28] was over 10 µg/mL and the IC80 (neutralization of pseudovirus) [28] was over 10 µg/mL. It also gave an IC90 (neutralization of pseudovirus) [28] of over 10 µg/mL, an IC95 (neutralization of pseudovirus) [28] of over 10 µg/mL and an IC50 (neutralization of pseudovirus) [29] of 0.545 µg/mL. The IC80 (neutralization of pseudovirus) [29] was over 10 µg/mL, the IC90 (neutralization of pseudovirus) [29] was over 10 µg/mL and the IC95 (neutralization of pseudovirus) [29] was over 10 µg/mL. It also gave an IC50 (neutralization of pseudovirus) [30] of over 10 µg/mL, an IC80 (neutralization of pseudovirus) [30] of over 10 µg/mL and an IC90 (neutralization of pseudovirus) [30] of over 10 µg/mL. For the same binder, the IC95 (neutralization of pseudovirus) [30] was over 10 µg/mL, the IC50 (neutralization of pseudovirus) [31] was over 10 µg/mL and the IC80 (neutralization of pseudovirus) [31] was over 10 µg/mL. For the same binder, the IC90 (neutralization of pseudovirus) [31] was over 10 µg/mL, the IC95 (neutralization of pseudovirus) [31] was over 10 µg/mL and the IC50 (neutralization of pseudovirus) [32] was over 10 µg/mL. It also gave an IC80 (neutralization of pseudovirus) [32] of over 10 µg/mL, an IC90 (neutralization of pseudovirus) [32] of over 10 µg/mL and an IC95 (neutralization of pseudovirus) [32] of over 10 µg/mL. For the same binder, the IC50 (neutralization of pseudovirus) [33] was 0.113 µg/mL, the IC80 (neutralization of pseudovirus) [33] was 0.503 µg/mL and the IC90 (neutralization of pseudovirus) [33] was 1.47 µg/mL. It also gave an IC95 (neutralization of pseudovirus) [33] of 8.3 µg/mL, an IC50 (neutralization of pseudovirus) [34] of over 10 µg/mL and an IC80 (neutralization of pseudovirus) [34] of over 10 µg/mL. It also gave an IC90 (neutralization of pseudovirus) [34] of over 10 µg/mL, an IC95 (neutralization of pseudovirus) [34] of over 10 µg/mL and an IC50 (neutralization of pseudovirus) [35] of over 10 µg/mL. The IC80 (neutralization of pseudovirus) [35] was over 10 µg/mL, the IC90 (neutralization of pseudovirus) [35] was over 10 µg/mL and the IC95 (neutralization of pseudovirus) [35] was over 10 µg/mL. For the same binder, the IC50 (neutralization of pseudovirus) [36] was over 10 µg/mL, the IC80 (neutralization of pseudovirus) [36] was over 10 µg/mL and the IC90 (neutralization of pseudovirus) [36] was over 10 µg/mL. The IC95 (neutralization of pseudovirus) [36] was over 10 µg/mL, the IC50 (neutralization of pseudovirus) [37] was 0.0123 µg/mL and the IC80 (neutralization of pseudovirus) [37] was 0.0562 µg/mL. For the same binder, the IC90 (neutralization of pseudovirus) [37] was 0.139 µg/mL, the IC95 (neutralization of pseudovirus) [37] was 0.331 µg/mL and the IC50 (neutralization of pseudovirus) [38] was over 10 µg/mL. It also gave an IC80 (neutralization of pseudovirus) [38] of over 10 µg/mL, an IC90 (neutralization of pseudovirus) [38] of over 10 µg/mL and an IC95 (neutralization of pseudovirus) [38] of over 10 µg/mL. For the same binder, the IC50 (neutralization of pseudovirus) [39] was 2.16 µg/mL, the IC80 (neutralization of pseudovirus) [39] was over 10 µg/mL and the IC90 (neutralization of pseudovirus) [39] was over 10 µg/mL. The IC95 (neutralization of pseudovirus) [39] was over 10 µg/mL, the IC50 (neutralization of pseudovirus) [40] was over 10 µg/mL and the IC80 (neutralization of pseudovirus) [40] was over 10 µg/mL. It also gave an IC90 (neutralization of pseudovirus) [40] of over 10 µg/mL, an IC95 (neutralization of pseudovirus) [40] of over 10 µg/mL and an IC50 (neutralization of pseudovirus) [41] of 0.0433 µg/mL. It also gave an IC80 (neutralization of pseudovirus) [41] of 0.2 µg/mL, an IC90 (neutralization of pseudovirus) [41] of over 10 µg/mL and an IC95 (neutralization of pseudovirus) [41] of over 10 µg/mL. It also gave an IC50 (neutralization of pseudovirus) [42] of 6.79 µg/mL, an IC80 (neutralization of pseudovirus) [42] of over 10 µg/mL and an IC90 (neutralization of pseudovirus) [42] of over 10 µg/mL. The IC95 (neutralization of pseudovirus) [42] was over 10 µg/mL, the IC50 (neutralization of pseudovirus) [43] was over 10 µg/mL and the IC80 (neutralization of pseudovirus) [43] was over 10 µg/mL. For the same binder, the IC90 (neutralization of pseudovirus) [43] was over 10 µg/mL and the IC95 (neutralization of pseudovirus) [43] was over 10 µg/mL.
